According to article PMC5109244:

Target: T1, short mouse DNGR-1 ECD (extracellular domain of the short isoform of mouse DNGR-1) (mouse), Q8BRU4
T1 chain: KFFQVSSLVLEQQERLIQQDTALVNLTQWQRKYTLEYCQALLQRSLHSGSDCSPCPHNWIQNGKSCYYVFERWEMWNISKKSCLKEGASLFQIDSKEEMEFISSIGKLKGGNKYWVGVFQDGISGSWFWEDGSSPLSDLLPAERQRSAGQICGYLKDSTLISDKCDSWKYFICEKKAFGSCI
Experiment: non-reducing SDS-PAGE and Western blot; supernatants of 293F cells with FLAG-tagged ECD proteins, Laemmli buffer without reducing agent, HRP-conjugated anti-FLAG detection
Conditions: remark: other sources report otherwise

B1: short mouse DNGR-1 ECD (extracellular domain of the short isoform of mouse DNGR-1), Q8BRU4 57-238 (domain or fragment)
chain: T1 chain
modifications: here or on the partner: glycosylated (mobility augmented by PNGase F); glycosylated (mobility augmented by PNGase F)
Q: For B1, which stoichiometry N is on record?
A: 2
